# Measured values from PMC3642127, “Distinguishable In Vitro Binding Mode of Monomeric TRBP and Dimeric PACT with siRNA” (PLoS ONE, 2013).
# T1: TRBP-ΔdsRBD3 (human, UniProt Q15633 1-292)
# T1 sequence: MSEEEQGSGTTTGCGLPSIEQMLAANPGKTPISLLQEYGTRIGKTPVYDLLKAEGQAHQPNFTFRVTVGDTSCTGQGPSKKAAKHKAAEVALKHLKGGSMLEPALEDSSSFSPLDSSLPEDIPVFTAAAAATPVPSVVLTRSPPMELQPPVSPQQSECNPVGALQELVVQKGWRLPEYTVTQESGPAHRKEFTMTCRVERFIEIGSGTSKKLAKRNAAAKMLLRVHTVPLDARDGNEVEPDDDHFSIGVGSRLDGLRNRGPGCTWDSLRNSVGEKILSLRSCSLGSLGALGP
# T2: TRBP-dsRBDmt2 (human, UniProt Q15633 1-366, K210A;K211A)
# T2 sequence: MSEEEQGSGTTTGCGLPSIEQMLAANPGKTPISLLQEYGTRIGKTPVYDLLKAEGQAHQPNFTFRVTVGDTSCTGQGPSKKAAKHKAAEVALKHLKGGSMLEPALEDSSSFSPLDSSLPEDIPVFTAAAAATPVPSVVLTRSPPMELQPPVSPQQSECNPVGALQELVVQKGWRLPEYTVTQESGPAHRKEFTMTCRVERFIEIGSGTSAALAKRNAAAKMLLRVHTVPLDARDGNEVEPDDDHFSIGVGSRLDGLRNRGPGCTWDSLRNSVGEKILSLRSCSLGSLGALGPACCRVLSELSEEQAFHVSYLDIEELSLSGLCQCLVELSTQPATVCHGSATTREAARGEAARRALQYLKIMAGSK
# T3: TRBP-dsRBDmt1 (human, UniProt Q15633 1-366, K80A;K81A)
# T3 sequence: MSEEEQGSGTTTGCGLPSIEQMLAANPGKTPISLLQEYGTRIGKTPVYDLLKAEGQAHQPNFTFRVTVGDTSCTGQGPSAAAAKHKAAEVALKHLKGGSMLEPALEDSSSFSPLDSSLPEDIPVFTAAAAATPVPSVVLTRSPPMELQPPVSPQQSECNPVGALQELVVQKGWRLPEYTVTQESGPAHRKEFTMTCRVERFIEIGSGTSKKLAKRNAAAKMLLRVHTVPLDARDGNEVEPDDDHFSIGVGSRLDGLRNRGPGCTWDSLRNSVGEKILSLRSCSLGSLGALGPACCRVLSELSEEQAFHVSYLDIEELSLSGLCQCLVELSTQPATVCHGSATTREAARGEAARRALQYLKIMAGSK
# T4: TRBP-WT (human, UniProt Q15633 1-366)
# T4 sequence: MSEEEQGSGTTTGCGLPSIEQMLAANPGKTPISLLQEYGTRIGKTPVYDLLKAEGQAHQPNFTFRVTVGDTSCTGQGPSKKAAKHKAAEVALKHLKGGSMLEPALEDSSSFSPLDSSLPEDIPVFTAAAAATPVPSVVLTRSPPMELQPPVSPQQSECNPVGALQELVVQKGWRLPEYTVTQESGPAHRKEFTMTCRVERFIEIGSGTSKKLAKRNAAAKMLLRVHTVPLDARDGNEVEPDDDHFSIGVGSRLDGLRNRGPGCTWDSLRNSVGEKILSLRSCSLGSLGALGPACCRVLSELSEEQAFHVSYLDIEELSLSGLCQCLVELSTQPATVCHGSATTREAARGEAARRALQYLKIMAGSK
# T5: TRBP-dsRBDmt1+2 (human, UniProt Q15633 1-366, K80A;K81A;K210A;K211A)
# T5 sequence: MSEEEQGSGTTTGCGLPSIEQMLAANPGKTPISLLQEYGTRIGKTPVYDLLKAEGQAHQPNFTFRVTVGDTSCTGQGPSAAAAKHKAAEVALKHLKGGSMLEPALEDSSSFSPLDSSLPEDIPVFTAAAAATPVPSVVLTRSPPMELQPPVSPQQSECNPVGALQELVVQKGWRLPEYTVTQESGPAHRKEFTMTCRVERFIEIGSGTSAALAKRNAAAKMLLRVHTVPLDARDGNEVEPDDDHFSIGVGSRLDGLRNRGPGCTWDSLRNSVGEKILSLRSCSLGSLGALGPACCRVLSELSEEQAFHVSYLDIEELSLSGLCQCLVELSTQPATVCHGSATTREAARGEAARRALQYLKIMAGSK
# B1: siLuc2-153 (dsRNA)
# RNA 1: UCGAAGUAUUCCGCGUACGUG
# RNA 2: CGUACGCGGAAUACUUCGAUU
# Assays:
# Conditions in all cases: protein: recombinant; tags: N-His6;C-myc; label: 32P guide strand; 2 nt 3' overhangs
# TRBP-ΔdsRBD3 = target: T1, TRBP-ΔdsRBD3; test: EMSA; complex 1; EMSA: 20 mM Tris pH 7.5, 150 mM NaCl, 2 mM EDTA, 1 mM 2-mercaptoethanol, 1 mM DTT, 50 ng/ul salmon sperm DNA, 0.4 U/ul RNasin, 0.5 nM 32P-siRNA, 30 min on ice
# TRBP-dsRBDmt2 = target: T2, TRBP-dsRBDmt2; test: EMSA; single-step complex; EMSA: 20 mM Tris pH 7.5, 150 mM NaCl, 2 mM EDTA, 1 mM 2-mercaptoethanol, 1 mM DTT, 50 ng/ul salmon sperm DNA, 0.4 U/ul RNasin, 0.5 nM 32P-siRNA, 30 min on ice
# TRBP-dsRBDmt1 = target: T3, TRBP-dsRBDmt1; test: as above
# TRBP-WT = target: T4, TRBP-WT; test: EMSA; complex 1 (monomer); EMSA: 20 mM Tris pH 7.5, 150 mM NaCl, 2 mM EDTA, 1 mM 2-mercaptoethanol, 1 mM DTT, 50 ng/ul salmon sperm DNA, 0.4 U/ul RNasin, 0.5 nM 32P-siRNA, 30 min on ice
# TRBP-dsRBDmt1+2 = target: T5, TRBP-dsRBDmt1+2; test: EMSA; virtually no binding; Kd ND; EMSA: 20 mM Tris pH 7.5, 150 mM NaCl, 2 mM EDTA, 1 mM 2-mercaptoethanol, 1 mM DTT, 50 ng/ul salmon sperm DNA, 0.4 U/ul RNasin, 0.5 nM 32P-siRNA, 30 min on ice
binder,measurement,setting,value
B1,Kd,TRBP-ΔdsRBD3,12 nM
same,Kd,TRBP-dsRBDmt2,520 nM
same,Kd,TRBP-dsRBDmt1,260 nM
same,Kd,TRBP-WT,4 nM
same,binding result,TRBP-dsRBDmt1+2,no binding
